Measurements as given in paper PMC9838529, “The neoepitope of the complement C5b-9 Membrane Attack Complex is formed by proximity of adjacent ancillary regions of C9” (Communications Biology, 2023).

Key:
[1] = molecular target: the molecule itself; experiment: SEC; analytical size exclusion (Superdex 200 Increase 5/150 GL) of C9 after the polyC9 reaction (10 mM HEPES pH 7.2, 50 mM NaCl, overnight at 37 °C); oligomer in the void volume (~1.2 mL), monomer at ~2.1 mL
[2] = molecular target: T1, polyC9 (in vitro homo-oligomerised human C9, wild type) (human); experiment: SPR; aE11 IgG amine-coupled to a CM5 chip (~700 RU), polyC9 as analyte; Biacore T200, 25 °C; 10 mM HEPES-NaOH pH 7.2, 150 mM NaCl, 1 mM EDTA, 0.005% P20; multi-cycle kinetics; maximum response as relative measure; one-to-one model disregarding multivalency; settings: both partners purified
T1 construct: complement component C9, human, wild type, cloned in pSecTag2A; Tag-less purification; also called oligomeric C9; wild type oligomeric C9; source: Expi293F, purified (DEAE, CHT, SEC); oligomerised by incubating 1 mg/mL C9 overnight at 37 °C; copies: 22
T1 sequence (chain, as listed by the source): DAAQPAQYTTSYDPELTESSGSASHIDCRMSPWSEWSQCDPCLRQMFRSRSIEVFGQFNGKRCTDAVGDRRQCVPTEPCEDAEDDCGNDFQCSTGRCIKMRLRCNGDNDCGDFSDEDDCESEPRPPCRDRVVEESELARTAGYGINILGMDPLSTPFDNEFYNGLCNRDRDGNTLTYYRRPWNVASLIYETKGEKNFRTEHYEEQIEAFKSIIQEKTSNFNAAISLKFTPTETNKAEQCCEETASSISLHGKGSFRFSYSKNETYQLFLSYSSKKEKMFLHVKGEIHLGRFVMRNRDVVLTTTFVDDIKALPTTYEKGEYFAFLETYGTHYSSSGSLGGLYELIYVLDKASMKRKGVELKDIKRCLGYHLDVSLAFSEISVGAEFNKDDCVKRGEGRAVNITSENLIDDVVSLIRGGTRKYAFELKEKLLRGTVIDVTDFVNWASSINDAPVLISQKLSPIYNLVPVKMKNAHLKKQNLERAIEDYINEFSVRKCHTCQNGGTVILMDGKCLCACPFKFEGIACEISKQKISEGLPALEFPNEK

[3] = molecular target: T2, whole MAC (C5b6, C7, C8αβγ, human C9) formed on liposomes (Homo sapiens); experiment: far-Western, overlay or dot blot; slot immunoblot of MAC formed on liposomes from C5b6 (1 to 16.8 nM), C7 30 nM, C8 30 nM, C9 7 nM; probed with aE11; settings: both partners purified
T2 construct: C5b of C5b6: beta chain of complement C5; C5b of C5b6: alpha' chain of complement C5 (alpha chain without C5a); complement component C6 of C5b6; complement component C7; complement component C8 alpha chain; complement component C8 beta chain; complement component C8 gamma chain; complement component C9, human, wild type, as in m8; oligomeric in the MAC; also called C5b-9; oligomeric human C9 …
T2 sequence (P02748 22-559): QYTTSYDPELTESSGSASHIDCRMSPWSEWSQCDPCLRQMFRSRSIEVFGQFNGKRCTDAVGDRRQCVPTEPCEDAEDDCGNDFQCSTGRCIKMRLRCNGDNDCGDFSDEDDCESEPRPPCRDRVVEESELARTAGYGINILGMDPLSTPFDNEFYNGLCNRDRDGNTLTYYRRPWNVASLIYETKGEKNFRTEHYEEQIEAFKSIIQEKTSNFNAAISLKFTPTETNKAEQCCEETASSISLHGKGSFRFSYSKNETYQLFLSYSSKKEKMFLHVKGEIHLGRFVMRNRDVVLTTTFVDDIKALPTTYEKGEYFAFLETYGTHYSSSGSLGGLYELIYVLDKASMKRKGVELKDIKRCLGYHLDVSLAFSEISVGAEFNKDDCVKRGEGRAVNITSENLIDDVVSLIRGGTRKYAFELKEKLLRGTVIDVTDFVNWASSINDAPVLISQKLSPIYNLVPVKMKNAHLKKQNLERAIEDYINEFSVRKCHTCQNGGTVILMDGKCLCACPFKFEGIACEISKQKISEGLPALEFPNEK

B1: human complement C9 V68E (natural protein)
chain: not shown
notes: complement component C9, human, human-to-murine point mutant; source: Expi293F, purified tag-less (anion exchange, CHT, SEC)
Question: Does B1 bind [1]?
Answer: Result: binds

B2: human complement C9 R65Q/V68E/P72E (natural protein)
chain: not shown
notes: complement component C9, human, human-to-murine triple mutant; also called triple mutant; source: Expi293F, purified tag-less (anion exchange, CHT, SEC)
Question: Does B2 bind [1]?
Answer: Result: binds

B3: aE11 IgG (antibody, V domains shown)
VH: QVQLKESGPGLVAPSQSLSITCTVSGFSLTVYGVNWIRQPPGKGLEWLGMIWGDGSTDYNSALKSRLSITKDNSKSQVFLKMNSLQTDDTARYYCARDRSYGGSSAWFGYWGQGTLVTVSA
VL: DIQMTQTTSSLSASLGDRVTISCRASHDISNYLNWYQQKPDGTLKLLIYYTSRLHSGVPSRFSGSGSGTDYSLTISNLEQEDVATYFCQQGNYLPYTFGGGTKLEIK
notes: heavy chain of mouse monoclonal aE11; variable region as the heavy chain of m1 in PDB 8DE6; light chain (kappa) of mouse monoclonal aE11; variable region as the light chain of m1 in PDB 8DE6; also called monoclonal aE11; full aE11 IgG; source: purified from hybridoma supernatant by protein G chromatography
Question: For B3, which koff [2] is on record?
Answer: The koff was ~1e-06 s⁻¹.

Question: Does B3 bind [3]?
Answer: Result: binds
